Experimental data: patent US20130189283A1
Where no end group is shown, it is not given here.

B1: Bivalent Fc-L10-ShK[1-35] homodimer (Fc fusion)
chain: GGGGSGGGGSRSCIDTIPKSRCTAFQCKHSMKYRLSFCRKTCGTC
modifications: not fully specified (N-terminus); ends and bridges not checked; also: homodimer via Fc
B2: Bivalent Fc-L10-ShK[2-35] homodimer (Fc fusion)
chain: GGGGSGGGGSSCIDTIPKSRCTAFQCKHSMKYRLSFCRKTCGTC
modifications: not fully specified (N-terminus); ends and bridges not checked; also: homodimer via Fc

Biological target: Kv1.3 voltage-gated potassium channel on T cells in human whole blood (human) (UniProt P22001)
Assay: cell-based or functional assay

Kv1.3 voltage-gated potassium channel on T cells in human whole blood (human), sequence (P22001 whole entry): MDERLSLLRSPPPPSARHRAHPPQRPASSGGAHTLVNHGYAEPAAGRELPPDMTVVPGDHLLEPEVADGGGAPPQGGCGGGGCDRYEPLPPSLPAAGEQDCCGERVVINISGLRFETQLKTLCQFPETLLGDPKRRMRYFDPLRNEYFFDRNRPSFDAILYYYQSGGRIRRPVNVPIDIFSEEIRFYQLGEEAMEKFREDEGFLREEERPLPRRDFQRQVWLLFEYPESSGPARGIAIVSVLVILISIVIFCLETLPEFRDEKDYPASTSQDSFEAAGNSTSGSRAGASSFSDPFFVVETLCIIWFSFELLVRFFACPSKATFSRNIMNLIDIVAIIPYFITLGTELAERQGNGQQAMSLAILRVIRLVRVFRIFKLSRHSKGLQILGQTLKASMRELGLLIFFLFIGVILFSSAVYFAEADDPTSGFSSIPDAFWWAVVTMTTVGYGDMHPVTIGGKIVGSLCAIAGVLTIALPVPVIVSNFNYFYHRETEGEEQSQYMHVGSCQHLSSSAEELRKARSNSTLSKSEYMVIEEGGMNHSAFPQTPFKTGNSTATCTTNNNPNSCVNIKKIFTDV

Binder | Potency Relative to ShK (WB, IL2) | WB (IFNg) IC50 | WB (IL-2) IC50
B1 | 5.76 fold | 320 pM | 386 pM
B2 | 8.73 fold | 2280 pM | 585 pM
